According to publication PMC8442553 (Science (New York, N.Y.), 2019):

Experiments:
Assay in all cases: cryo-EM structure
Rsc8 = target: T1, Rsc8 (yeast, UniProt P43609 1-557)
T1 sequence: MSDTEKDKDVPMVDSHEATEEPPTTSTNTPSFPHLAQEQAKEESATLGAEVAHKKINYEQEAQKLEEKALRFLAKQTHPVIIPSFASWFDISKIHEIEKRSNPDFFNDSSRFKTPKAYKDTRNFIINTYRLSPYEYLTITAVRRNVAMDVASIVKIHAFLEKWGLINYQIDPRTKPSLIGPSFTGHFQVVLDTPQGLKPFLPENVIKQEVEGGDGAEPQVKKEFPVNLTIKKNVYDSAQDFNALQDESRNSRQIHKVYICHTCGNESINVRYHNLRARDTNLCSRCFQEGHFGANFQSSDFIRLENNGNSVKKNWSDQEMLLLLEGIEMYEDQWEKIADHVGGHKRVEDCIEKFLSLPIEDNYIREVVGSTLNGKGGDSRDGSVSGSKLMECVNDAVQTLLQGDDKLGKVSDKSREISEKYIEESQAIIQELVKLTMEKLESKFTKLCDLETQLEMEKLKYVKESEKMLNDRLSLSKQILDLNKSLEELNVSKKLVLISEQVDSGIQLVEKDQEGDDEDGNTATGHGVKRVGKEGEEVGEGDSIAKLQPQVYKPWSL

Rsc58 = target: T2, Rsc58 (yeast, UniProt Q07979 1-502)
T2 sequence: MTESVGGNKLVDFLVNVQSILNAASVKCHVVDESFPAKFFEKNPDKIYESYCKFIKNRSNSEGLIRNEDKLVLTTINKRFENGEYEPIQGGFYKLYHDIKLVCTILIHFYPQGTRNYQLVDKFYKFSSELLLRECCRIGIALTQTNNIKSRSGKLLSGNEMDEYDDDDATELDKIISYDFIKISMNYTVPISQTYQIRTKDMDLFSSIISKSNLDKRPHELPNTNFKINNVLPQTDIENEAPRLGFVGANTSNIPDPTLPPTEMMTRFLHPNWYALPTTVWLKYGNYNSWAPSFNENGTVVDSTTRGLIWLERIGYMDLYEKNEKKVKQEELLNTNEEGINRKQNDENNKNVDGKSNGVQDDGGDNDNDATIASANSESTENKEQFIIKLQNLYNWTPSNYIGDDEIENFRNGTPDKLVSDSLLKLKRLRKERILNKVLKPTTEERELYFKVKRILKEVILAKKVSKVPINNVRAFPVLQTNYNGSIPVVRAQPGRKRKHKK

Rsc9 = target: T3, Rsc9 (yeast, UniProt Q03124 1-581)
T3 sequence: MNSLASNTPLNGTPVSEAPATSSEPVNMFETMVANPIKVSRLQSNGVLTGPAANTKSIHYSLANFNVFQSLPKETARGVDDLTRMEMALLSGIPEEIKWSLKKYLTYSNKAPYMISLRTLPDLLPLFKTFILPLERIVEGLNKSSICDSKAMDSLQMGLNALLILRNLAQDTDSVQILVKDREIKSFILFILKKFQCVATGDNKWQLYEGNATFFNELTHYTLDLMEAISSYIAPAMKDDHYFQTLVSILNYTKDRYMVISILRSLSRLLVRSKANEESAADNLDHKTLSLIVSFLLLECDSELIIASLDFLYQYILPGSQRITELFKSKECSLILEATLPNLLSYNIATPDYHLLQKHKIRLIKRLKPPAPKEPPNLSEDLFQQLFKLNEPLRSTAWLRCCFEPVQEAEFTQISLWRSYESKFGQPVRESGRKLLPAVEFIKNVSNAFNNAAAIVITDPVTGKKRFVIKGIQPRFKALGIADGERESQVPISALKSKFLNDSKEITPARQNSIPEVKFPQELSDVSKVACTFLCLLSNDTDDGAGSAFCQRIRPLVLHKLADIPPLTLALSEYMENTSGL

Measured: binding result

B1: Rsc6 (natural protein, yeast)
chain: MVTQTNPVPVTYPTDAYIPTYLPDDKVSNLADLKKLIEMDSRLDLYLTRRRLDTSINLPTNTKTKDHPPNKEMLRIYVYNTTESSPRSDSGTPADSGKTTWTLRIEGKLLHESANGKHPFSEFLEGVAVDFKRLKPLGMGKKRKRDSSLSLPLNLQQPEYNDQDSTMGDNDNGEDEDSAEAESREEIVDALEWNYDENNVVEFDGIDIKRQGKDNLRCSITIQLRGVDGGKVQYSPNLATLIGMQTGSVNDAVYSIYKYILINNLFVTEQTEAQDGSNDAEDSSNENNNKNGAGDDDGVEGSTPKDKPELGEVKLDSLLQKVLDTNAAHLPLMNVVQTVNKLVSPLPPIILDYTIDLSKDTTYGATTLDVDVSHILHQPQPQPNLQKEEETDAEDTAKLREITKLALQLNSSAQKYQFFHELSLHPRETLTHYLWSSKQNELVLQGDQYFNEDAARTSDIYSNNNNDRSLMGNISLLYSQGRL
binds: all assays above
